# Ends that are not written are not given here. * marks the point of attachment. Biotin = O=C1N[C@H]2[C@H](CS[C@H]2CCCCC(=O)*)N1
# T1: GKTYSYHMQLYT
# T1 construct: also called line 4 under 13E4
# T1 peptide: GKTYSYHMQLYT
# T2: YHVGGILGRLFM
# T2 construct: also called line 3 under 13E4
# T2 peptide: YHVGGILGRLFM
# T3: YNTFPYHLGYTL
# T3 construct: also called line 5 under 13E4
# T3 peptide: YNTFPYHLGYTL
# T4: DNASSSKVHHGH
# T4 construct: also called line 2 under 13E4
# T4 peptide: DNASSSKVHHGH
# T5: TFVHGNTWTIVN
# T5 construct: also called line 1 under 13E4
# T5 peptide: TFVHGNTWTIVN
# T6: 267 RNSFEVHVCACPG 279 (not fully specified; cysteine pairing not given here)
# T6 construct: also called unsubstituted 13-mer of the alanine scan on R273H
# T6 peptide: Biotin-RNSFEVHVCACPG
# T7: SEQ ID NO 113
# T7 peptide: GKTYSYHMQLYT
# T8: SEQ ID NO 114
# T8 peptide: YHVGGILGRLFM
# T9: SEQ ID NO 115
# T9 peptide: YNTFPYHLGYTL
# T10: SEQ ID NO 116
# T10 peptide: DNASSSKVHHGH
# T11: SEQ ID NO 117
# T11 peptide: TFVHGNTWTIVN
# T12: SRPADHWPRHNE
# T12 construct: also called line 2 under 4H2
# T12 peptide: SRPADHWPRHNE
# T13: SSRPMAHWPIKV
# T13 construct: also called line 3 under 4H2
# T13 peptide: SSRPMAHWPIKV
# T14: SNTPHWPGRPGI
# T14 construct: also called line 5 under 4H2
# T14 peptide: SNTPHWPGRPGI
# T15: ELWQNVRPFLWV
# T15 construct: also called line 1 under 4H2
# T15 peptide: ELWQNVRPFLWV
# T16: SEQ ID NO 104
# T16 peptide: ELWQNVRPFLWV
# T17: SEQ ID NO 105
# T17 peptide: SRPADHWPRHNE
# T18: SEQ ID NO 106
# T18 peptide: SSRPMAHWPIKV
# T19: SEQ ID NO 108
# T19 peptide: SNTPHWPGRPGI
# T20: SEQ ID NO 109
# T20 peptide: INTPRDWAYGGL
# T21: SEQ ID NO 136
# T21 peptide: SSTHYSWSLMDA
# T22: SEQ ID NO 137
# T22 peptide: GPSCHYCFTGLP
# T23: SEQ ID NO 138
# T23 peptide: WSVPPGRHIHYS
# T24: SEQ ID NO 139
# T24 peptide: FSVPSGHYIRAN
# T25: SEQ ID NO 140
# T25 peptide: FSVRPFHYAQDN
# T26: SEQ ID NO 141
# T26 peptide: FSVPFDRIQETP
# T27: SEQ ID NO 142
# T27 peptide: FSVRPYDPQIEN
# T28: SSTHYSWSLMDA
# T28 construct: also called line 1 under 3G11
# T28 peptide: SSTHYSWSLMDA
# T29: GPSCHYCFTGLP
# T29 construct: also called lines 2 and 3 under 3G11
# T29 peptide: GPSCHYCFTGLP
# T30: WSVPPGRHIHYS
# T30 construct: also called lines 4 and 5 under 3G11
# T30 peptide: WSVPPGRHIHYS
# T31: FSVPSGHYIRAN
# T31 construct: also called line 10 under 3G11
# T31 peptide: FSVPSGHYIRAN
# T32: FSVRPFHYAQDN
# T32 construct: also called line 8 under 3G11
# T32 peptide: FSVRPFHYAQDN
# T33: FSVPFDRIQETP
# T33 construct: also called line 7 under 3G11
# T33 peptide: FSVPFDRIQETP
# T34: FSVRPYDPQIEN
# T34 construct: also called line 9 under 3G11
# T34 peptide: FSVRPYDPQIEN
# B1: anti-R273H p53 antibody clone 13E4 (antibody, V domains shown)
# VH: EVQLLETGGDLVTPGGSLKLSCAASGFSFSDYYMYWVRQTPEKRLEWVATISVGGTYTFYSDNVKGRFVISRDNARKNLHLEMNSLKSEDAAMYYCVRDGNDGKFLGYWGQGTFVTVTV
# VL: DIVMTQSPLSLPVNLGDQVSLSCRSSQSIVHNNGDTYLEWYLQKPGQSPKLLIYKVSNRFSGVPDRFSGSGSGTDFTLKISRVEAEDLGIYYCFQGSHLPLTFGSGTKLELK
# notes: Mouse monoclonal antibody from hybridoma; also called 13E4 mAb
# B2: anti-R248Q p53 antibody clone 4H2 (antibody, V domains shown)
# VH: QVQLKQSGPELVKPGASVKMSCKASGYTFTDYYLKWVRQSHGKSLEWIGDIDPKNGGTNYNQKFKGKATLTVDKSSSTAYMQLNSLTSEDSAVYYCAKQGGFDDYWGQGTTLTVSS
# VL: not shown
# notes: Mouse monoclonal antibody from hybridoma
# B3: mouse human chimeric anti-R248Q p53 antibody clone MH 4H2 (antibody, V domains shown)
# VH: B2 VH
# VL: not shown
# notes: also called chimeric 4H2
# B4: anti-R248Q p53 antibody clone 3G11 (antibody, V domains shown)
# VH: DVQLQQSGPELVKPGASVKMSCKASGYTFTDYYVKWVKQSPGQSLEWIGDIHPKNGGTNYNQKFKGKAALTVDKSSSTAYMQLNSLTSEDSAVYFCAKMGGYDDYWGQGTTLTVSS
# VL: not shown
# B5: mouse human chimeric anti-R248Q p53 antibody clone MH 3G11 (antibody, V domains shown)
# VH: B4 VH
# VL: not shown
# notes: also called chimeric 3G11
# Tests used:
# GKTYSYHMQLYT = molecular target: T1, GKTYSYHMQLYT; assay: phage display, random 12-mers on M13 pIII, panning on the antibody
# YHVGGILGRLFM = molecular target: T2, YHVGGILGRLFM; assay: as above
# YNTFPYHLGYTL = molecular target: T3, YNTFPYHLGYTL; assay: as above
# DNASSSKVHHGH = molecular target: T4, DNASSSKVHHGH; assay: as above
# TFVHGNTWTIVN = molecular target: T5, TFVHGNTWTIVN; assay: as above
# 267 RNSFEVHVCACPG 279 = molecular target: T6, 267 RNSFEVHVCACPG 279; assay: ELISA on biotinylated 13-mer on streptavidin plate, antibody 1 ug/ml, O.D. 650 nm
# SEQ ID NO 113 = molecular target: T7, SEQ ID NO 113; assay: phage display: peptide captured by the antibody from an M13 random 12-mer library (FIG. 7C = clone 13E4 by paragraph 523)
# SEQ ID NO 114 = molecular target: T8, SEQ ID NO 114; assay: as above
# SEQ ID NO 115 = molecular target: T9, SEQ ID NO 115; assay: as above
# SEQ ID NO 116 = molecular target: T10, SEQ ID NO 116; assay: as above
# SEQ ID NO 117 = molecular target: T11, SEQ ID NO 117; assay: as above
# [1] = molecular target: T35, human p53 wild-type full length protein (human, UniProt P04637 1-393); assay: ELISA on coated full-length protein
# T35 construct: Full length recombinant protein in ELISA; expressed in transfected H1299 cells or endogenous in MCF7/A549 cells and tumour samples in blots, IP, IF and IHC; also called wildtype p53; WT HP53
# [2] = molecular target: T36, mouse p53 wild-type full length protein (mouse, UniProt P02340 1-390); assay: ELISA on coated full-length protein
# T36 construct: mature; Full length protein in ELISA; also called wildtype mouse p53; p53 of wild-type MEFs
# SRPADHWPRHNE = molecular target: T12, SRPADHWPRHNE; assay: phage display, random 12-mers on M13 pIII, panning on the antibody
# SSRPMAHWPIKV = molecular target: T13, SSRPMAHWPIKV; assay: as above
# SNTPHWPGRPGI = molecular target: T14, SNTPHWPGRPGI; assay: as above
# ELWQNVRPFLWV = molecular target: T15, ELWQNVRPFLWV; assay: as above
# SEQ ID NO 104 = molecular target: T16, SEQ ID NO 104; assay: phage display: peptide captured by the antibody from an M13 random 12-mer library (FIG. 7B = clone 4H2 by paragraph 523)
# SEQ ID NO 105 = molecular target: T17, SEQ ID NO 105; assay: as above
# SEQ ID NO 106 = molecular target: T18, SEQ ID NO 106; assay: as above
# SEQ ID NO 108 = molecular target: T19, SEQ ID NO 108; assay: as above
# SEQ ID NO 109 = molecular target: T20, SEQ ID NO 109; assay: as above
# SEQ ID NO 136 = molecular target: T21, SEQ ID NO 136; assay: phage display: peptide captured by the antibody (FIG. 8B taken as clone 3G11 by paragraph 561)
# SEQ ID NO 137 = molecular target: T22, SEQ ID NO 137; assay: as above
# SEQ ID NO 138 = molecular target: T23, SEQ ID NO 138; assay: as above
# SEQ ID NO 139 = molecular target: T24, SEQ ID NO 139; assay: as above
# SEQ ID NO 140 = molecular target: T25, SEQ ID NO 140; assay: as above
# SEQ ID NO 141 = molecular target: T26, SEQ ID NO 141; assay: as above
# SEQ ID NO 142 = molecular target: T27, SEQ ID NO 142; assay: as above
# SSTHYSWSLMDA = molecular target: T28, SSTHYSWSLMDA; assay: phage display, random 12-mers on M13 pIII, panning on the antibody
# GPSCHYCFTGLP = molecular target: T29, GPSCHYCFTGLP; assay: as above
# WSVPPGRHIHYS = molecular target: T30, WSVPPGRHIHYS; assay: as above
# FSVPSGHYIRAN = molecular target: T31, FSVPSGHYIRAN; assay: as above
# FSVRPFHYAQDN = molecular target: T32, FSVRPFHYAQDN; assay: as above
# FSVPFDRIQETP = molecular target: T33, FSVPFDRIQETP; assay: as above
# FSVRPYDPQIEN = molecular target: T34, FSVRPYDPQIEN; assay: as above
binder,measurement,setting,value
B1,binding result,GKTYSYHMQLYT,binds
same,binding result,YHVGGILGRLFM,binds
same,binding result,YNTFPYHLGYTL,binds
same,binding result,DNASSSKVHHGH,binds
same,binding result,TFVHGNTWTIVN,binds
same,binding result,267 RNSFEVHVCACPG 279,binds
same,binding result,SEQ ID NO 113,binds
same,binding result,SEQ ID NO 114,binds
same,binding result,SEQ ID NO 115,binds
same,binding result,SEQ ID NO 116,binds
same,binding result,SEQ ID NO 117,binds
B2,binding result,[1],no binding (tested: neat supernatant)
same,binding result,[2],no binding (tested: neat supernatant)
same,binding result,SRPADHWPRHNE,binds
same,binding result,SSRPMAHWPIKV,binds
same,binding result,SNTPHWPGRPGI,binds
same,binding result,ELWQNVRPFLWV,binds
same,binding result,SEQ ID NO 104,binds
same,binding result,SEQ ID NO 105,binds
same,binding result,SEQ ID NO 106,binds
same,binding result,SEQ ID NO 108,binds
same,binding result,SEQ ID NO 109,binds
B3,binding result,[2],no binding (tested: 1 ng/µl)
B4,binding result,[2],no binding (tested: neat supernatant)
same,binding result,SEQ ID NO 136,binds
same,binding result,SEQ ID NO 137,binds
same,binding result,SEQ ID NO 138,binds
same,binding result,SEQ ID NO 139,binds
same,binding result,SEQ ID NO 140,binds
same,binding result,SEQ ID NO 141,binds
same,binding result,SEQ ID NO 142,binds
same,binding result,SSTHYSWSLMDA,binds
same,binding result,GPSCHYCFTGLP,binds
same,binding result,WSVPPGRHIHYS,binds
same,binding result,FSVPSGHYIRAN,binds
same,binding result,FSVRPFHYAQDN,binds
same,binding result,FSVPFDRIQETP,binds
same,binding result,FSVRPYDPQIEN,binds
B5,binding result,[2],no binding (tested: 1 ng/µl)

# Reference: patent US20250263475A1 (AGENCY FOR SCIENCE TECHNOLOGY AND RESEARCH, published 2025)
